Measurements as given in patent US20170291930.

Tests used:
[1] = test system: T1, Hst-5 synthetic peptide K17R
T1 sequence: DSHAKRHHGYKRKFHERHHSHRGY

[2] = test system: T2, Hst-5 synthetic peptide K17L
T2 sequence: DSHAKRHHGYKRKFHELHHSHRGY

[3] = test system: T3, Hst-5 synthetic peptide K13L
T3 sequence: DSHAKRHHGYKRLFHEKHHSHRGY

For “purified recombinant Sap9 (C. albicans secreted aspartic protease 9)”, the “cleavage at the C-terminal side of residue 17 by Sap9 (mass spectrometry)” value [1] was “while the parent Hst-5 was cleaved on the C-terminal side of K17, neither K17R nor K17L showed significant cleavage at this site”, the “cleavage at the C-terminal side of residue 17 by Sap9 (mass spectrometry)” value [2] was “while the parent Hst-5 was cleaved on the C-terminal side of K17, neither K17R nor K17L showed significant cleavage at this site” and the “cleavage site preference of Sap9 (mass spectrometry)” value [3] was “K13L showed an apparent shift in cleavage site preference compared to the parent Hst-5. The fragments containing amino acids 1-12 and 13-24 had higher signals for K13L than the fragments containing amino acids 1-17 and 18-24”.
